Laboratory results reported in the supplement of paper PMC10724198.
± gives the standard deviation of the averaged measurements.

system: Saccharomyces cerevisiae; test: protein stability index of tFT-peptide fusion (C-terminal peptide) (PSI (0-1 scale)); higher = more stable (slower turnover); conditions: genetic background: wild type; temperature: 30 C
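Note: PSI is a weighted mean of sequencing reads over stability bins, variants kept only with over 10 reads, mCherry proximal and sfGFP distal, peptide attached via GGGS linker.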

Sequence	protein stability index
LVGRAITTLPPV	0.66 ± 0.037
PPPPSLPHTIGP	0.643 ± 0.042
GASGLRIIQVSW	0.671 ± 0.0098
NTPHSRSLRSNH	0.695 ± 0.017
SCVTLTGLSGDK	0.698 ± 0.016
TEKERSKKDELK	0.673 ± 0.064
VGLFGLCRVFGM	0.646 ± 0.023
VVSKMGFGAALV	0.654 ± 0.085
WVPLGVVGWFGG	0.659 ± 0.038
RNVKETSNRREL	0.627 ± 0.11
PPKEEPRWATGD	0.693 ± 0.043
RHGVQMAGLKRR	0.679 ± 0.019
LVRFTDPIPQQA	0.615 ± 0.026
PVLSPPRPFNSL	0.677 ± 0.018
TPRPPQPGLSRT	0.67 ± 0.027
GRRKKKNRDKMK	0.6872 ± 0.004
NRGLYNLYRMSR	0.645 ± 0.0027
GPVYPGSRPAFT	0.708 ± 0.092
GLPWRRVGGGSG	0.699 ± 0.048
LLFCMGSCGPVR	0.624 ± 0.027
SWLASASGSHLI	0.74 ± 0.015
SSLWVGFLGCVG	0.646 ± 0.008
KPGGQRTRTRRR	0.622 ± 0.025
LEKYIKNYINKR	0.615 ± 0.016
RFKCVKPPLPRR	0.715 ± 0.03
ICLGCFEEYEGV	0.812 ± 0.077

Sequence	protein stability index
CGCVAVNSFPVL	0.69 ± 0.011
KNMKTEDLLIVN	0.727 ± 0.022
SVPHRLLSVPPV	0.6816 ± 0.0014
PCIRRRSISTLP	0.775 ± 0.11
PTTPPPSVPPLY	0.715 ± 0.042
PTQSPSTIPPSP	0.763 ± 0.11
FSARCGGGLDWS	0.722 ± 0.038
MGPLHVMLQRAR	0.805 ± 0.16
GVSWSWGDLAVL	0.756 ± 0.016
VWGVCAVFGCAG	0.644 ± 0.12
PLPPPVPPPPPP	0.66 ± 0.017
PPPPTLSPPRSL	0.718 ± 0.034
LKNIRYGIIKKE	0.68 ± 0.0085
VPCYSSACHGDA	0.669 ± 0.1
LPSSAVDLYTRP	0.6468 ± 0.0059
LPPHPPSPPFLP	0.588 ± 0.023
IKKNRYYKRIII	0.657 ± 0.028
RHARAARDSPRR	0.705 ± 0.081
VRHLGAIPQLSG	0.637 ± 0.095
LWVGSGGARCVV	0.624 ± 0.03
LYGSIPFGCRIL	0.94 ± 0.018
SPPRPPCLPLTP	0.713 ± 0.048
PPPPPPLPPSAA	0.711 ± 0.0091
WFRPLSMLPPGF	0.701 ± 0.02
WRGQRGRIAGPR	0.6694 ± 0.0062
KGKFTRGGMAGT	0.668 ± 0.049

Sequence	protein stability index
RSFVEQQCVTYA	0.628 ± 0.11
SCVAGSSHWTSI	0.712 ± 0.24
AVVTVVDRVVRE	0.594 ± 0.032
PSPPPHSAPPLP	0.732 ± 0.025
PHASLLPPSLSR	0.728 ± 0.0085
CECRCECGIGDK	0.632 ± 0.096
PLSCSPPLLSPS	0.678 ± 0.0089
KKQQKTKEKTES	0.76 ± 0.031
TRPHASPPPPPP	0.695 ± 0.024
FDCTSCIPFRFL	0.679 ± 0.035
RPRVAVPHTSLP	0.714 ± 0.069
GVLGGAGCGVVL	0.731 ± 0.023
PQVNSNQIRAPD	0.677 ± 0.021
ASGWWGGAVGLR	0.68375 ± 0.00064
CAGSRIYCVSLS	0.641 ± 0.062
PLSPSAAPSAPS	0.737 ± 0.1
RKLKNKTKREII	0.653 ± 0.0068
NSAPPPPHTPPP	0.699 ± 0.018
DVRYQSLRRSGF	0.725 ± 0.028
CLRGFWSQFMRF	0.678 ± 0.032
NSSADRSTNPTQ	0.649 ± 0.019
SVSPPLSFPPSR	0.706 ± 0.022
GGGAGGAVRRAS	0.6932 ± 0.005
RRWCVDLAMSFA	0.646 ± 0.016
LPCVSTCCSCLL	0.706 ± 0.011
SHSRRSNMTLFV	0.721 ± 0.073

Sequence	protein stability index
GGARPVWDPGFG	0.684 ± 0.0031
PTPPHPSHPTAP	0.665 ± 0.023
PPSPAGPLPSPA	0.686 ± 0.021
VVMLSLVALGRV	0.523 ± 0.026
TGAALPRPGPAL	0.659 ± 0.031
PTRRQEVPPEPT	0.636 ± 0.058
KIIKKKKKNKEH	0.596 ± 0.055
CPRSWWELLAID	0.739 ± 0.045
LNLLCGFRQVGG	0.701 ± 0.013
GGGGPGGLVGAA	0.662 ± 0.035
IWGGGKGRAGRH	0.651 ± 0.041
TRVAYINRGETR	0.78 ± 0.2
KNIKKKNKNDKK	0.6936 ± 0.0063
LPSLLPESGLCF	0.604 ± 0.0086
HGKNLALNEKCW	0.691 ± 0.034
RLGNVYSTSFQC	0.618 ± 0.012
WERGKGGLVMEG	0.646 ± 0.0067
PYPCPPRPSPPP	0.76 ± 0.034
DGVAMCGLKASL	0.643 ± 0.1
GFLPCKVVRTCV	0.549 ± 0.055
SNTKPTCSNQQS	0.688 ± 0.077
RKVGRVGGGRLE	0.637 ± 0.018
PPLPSPPAHSRS	0.678 ± 0.02
DERLNGWERGDV	0.698 ± 0.07
VAVRGGCGDWGR	0.689 ± 0.021
VTLSPSLPGFPL	0.6839 ± 0.00089

Sequence	protein stability index
RLFAPSHSSSLP	0.733 ± 0.055
RKHLIPRPTSNP	0.71 ± 0.011
KNAQQYQKKQKQ	0.797 ± 0.056
CVGSLGVVVGWG	0.724 ± 0.013
PPPPPPLPPLSP	0.717 ± 0.035
GGQGKWPGTPLL	0.738 ± 0.022
HQCVIVNFEKYD	0.669 ± 0.038
PLPRLTRPSPPR	0.681 ± 0.067
PDGPSIVVPGQG	0.678 ± 0.017
VRAVFPRSGLSC	0.696 ± 0.048
LFLPLPGPLRSS	0.79 ± 0.13
DYLSSPLSSPSP	0.667 ± 0.066
QPPPDPPPPTPS	0.592 ± 0.014
VGSMRRYCRTKI	0.792 ± 0.25
AIYKGVIVGKKS	0.646 ± 0.043
FGYEPVSLRAEF	0.675 ± 0.029
VAVGIEGGGWGV	0.764 ± 0.032
QPRAKNFRNPCP	0.661 ± 0.1
PGLDPFHGMNLS	0.6906 ± 0.0027
TLENEKKKKRNT	0.704 ± 0.084
SAPALPCQSPRL	0.696 ± 0.011
PAKNKKKKKNRK	0.6911 ± 0.0031
VRALCRYRTVNG	0.685 ± 0.035
SRLPIVGYLTLL	0.56 ± 0.036
PPPPPPNLASHP	0.707 ± 0.0031
PAPLPFPLPTSL	0.757 ± 0.015

Sequence	protein stability index
ACWGFFIAGVRV	0.598 ± 0.056
YRPGGDRMTGFV	0.713 ± 0.065
HVGGISSPLTPC	0.656 ± 0.025
TKRKKKTQEGSR	0.698 ± 0.045
PFPPPPRLHLPP	0.648 ± 0.04
PRDRLIRNHVTR	0.716 ± 0.086
VHSGSVDVSSFS	0.697 ± 0.018
SRGTTLDREQQR	0.687 ± 0.1
YIDLVEGECNKK	0.685 ± 0.046
SAPCHAHHLPYQ	0.73 ± 0.026
DIERSAAPRLLL	0.727 ± 0.042
PPRLNKAPCLDP	0.705 ± 0.036
VLRGMSVFGLGE	0.74 ± 0.14
IKKKVKNQKENQ	0.726 ± 0.013
APSRPFPAHPPP	0.602 ± 0.044
PSLPVPPTLCPI	0.675 ± 0.062
ASDMHRTNKPRE	0.671 ± 0.085
TPRPPPLPPRPP	0.603 ± 0.029
GASPRAYPLPPP	0.707 ± 0.032
GGSSWSLGGGGG	0.7406 ± 0.0023
AGREREVLFNLH	0.679 ± 0.067
PFPPPSAPPPSP	0.71 ± 0.015
ATPPHLLPAPLA	0.656 ± 0.011
PPPPGPSSPHPP	0.707 ± 0.041
FTVCVIYSKPSQ	0.5872 ± 0.0013
GFLPSIVPPVPR	0.753 ± 0.02

Sequence	protein stability index
SIDPAEFSSTLP	0.7125 ± 0.0029
PPLPFPPPPLPP	0.613 ± 0.029
HWGRGGRSGGDR	0.697 ± 0.025
PLPPPPFSVSPP	0.724 ± 0.012
RGRWLIVHCPTQ	0.605 ± 0.034
RLAAPPRYPPLP	0.731 ± 0.12
WGGGGGGGAAGS	0.679 ± 0.08
PLLLLLPALPPL	0.679 ± 0.026
GAGWLSWEGGGD	0.686 ± 0.04
IFPNSGKIEVLA	0.574 ± 0.016
ADGGVVLKVMEG	0.636 ± 0.077
QLYKLKNMKKKN	0.675 ± 0.0085
RVLIPLASSPPL	0.77 ± 0.23
PSPHAITSHFRP	0.723 ± 0.04
PAPPPLPPHSLP	0.718 ± 0.024
PHAPHFSRSIPS	0.745 ± 0.027
LSVWPHSVPSFV	0.659 ± 0.036
TFLVDLLSLFFL	0.65 ± 0.046
PSSRPPMSPIDT	0.694 ± 0.018
PTTFLSPPSPPS	0.71 ± 0.011
GITHSFLRSSVV	0.689 ± 0.054
VQEEGYYLHSSL	0.699 ± 0.021
AALSTYPLVTCS	0.547 ± 0.012
GAGGCNVGWRIR	0.7265 ± 0.0014
PAPPPRDLPTPP	0.664 ± 0.007
SRPTAPKRQTRY	0.6886 ± 0.0046

Sequence	protein stability index
SYRTCIRHSNAP	0.7655 ± 0.0074
LPSEAPSLLAPP	0.663 ± 0.084
QTNAEPPSERVT	0.655 ± 0.083
KSQATELKKVNG	0.65 ± 0.037
GWRSGGVYDGNI	0.6572 ± 0.0027
CSGCSGSCSVLA	0.646 ± 0.049
FCWSFGVLLSFS	0.559 ± 0.0099
PPASSARPLLFL	0.6664 ± 0.0053
KTRHRQKDVTTH	0.713 ± 0.055
VVCFLVHGWGGW	0.638 ± 0.048
VGGWGGVGTCVW	0.711 ± 0.047
PVAGMSNTPLYG	0.685 ± 0.11
AFRVPGSCAFSP	0.641 ± 0.011
PPPPPPSISPSP	0.5389 ± 0.0053
LAGGGARWGVVR	0.659 ± 0.033
RHTPPTTPLSLL	0.701 ± 0.096
RGGGGPGWGSRG	0.684 ± 0.025
KDGSKMQCNIKK	0.6763 ± 0.0014
SLERWNPGGSGV	0.656 ± 0.025
VKLSVITGCRVT	0.659 ± 0.092
